Laboratory results published in patent publication US6274703.
Where two headings read alike, the source gives them in different places.

How the values were obtained:
[1] = molecular target: TIMP-2 (Homo sapiens (Human)) (UniProt P16035); assay: competition with 125I-labelled WT GelA-CTD on TIMP-2 coated wells; against WT
[2] = molecular target: TIMP-2 (Homo sapiens (Human)) (UniProt P16035); assay: competition with 125I-labelled WT GelA-CTD on TIMP-2 coated wells; mutant Ki over WT Kd
[3] = molecular target: TIMP-2 (Homo sapiens (Human)) (UniProt P16035); assay: self competition with 125I-labelled WT GelA-CTD on TIMP-2 coated wells
[4] = molecular target: TIMP-2 (Homo sapiens (Human)) (UniProt P16035); assay: competition with 125I-labelled WT GelA-CTD on TIMP-2 coated wells; against WT; remark: listed apart in the source

Substance	fold loss in TIMP-2 binding [1] [fold]	Ki/Kd [2]	Ki/Kd [3]	fold loss in TIMP-2 binding [4] [fold]
FLAG GelA-CTD double mutant #46 Glu^641→Ala + Gly^651→Arg (from UniProt P08253)	> 100	> 500	–	–
FLAG GelA-CTD fusion protein, wild type (from UniProt P08253)	–	–	1	–
FLAG GelA-CTD mutant #31 Lys^579→Ala (from UniProt P08253)	–	6	–	–
FLAG GelA-CTD mutant #229 Lys^576→Ala (from UniProt P08253)	–	> 500	–	> 100
FLAG GelA-CTD mutant #234 Arg^590→Ala (from UniProt P08253)	> 100	> 500	–	> 100
FLAG GelA-CTD mutant #250 Trp^574→Ala (from UniProt P08253)	–	> 500	–	–
FLAG GelA-CTD mutant #258 Asp^656→Ala (from UniProt P08253)	–	10	–	–
FLAG GelA-CTD mutant #259 Asn^611→Ala (from UniProt P08253)	–	3	–	–

Second part, the substance after the results:

fold loss in TIMP-2 binding [1] [fold]	Ki/Kd [2]	Ki/Kd [3]	fold loss in TIMP-2 binding [4] [fold]	Substance
–	8	–	–	FLAG GelA-CTD mutant #28 Asp^569→Ala (from UniProt P08253)
–	25	–	–	FLAG GelA-CTD mutant #39 Lys^604→Ala (from UniProt P08253)
> 100	300	–	–	FLAG GelA-CTD mutant #41 Asp^615→Ala (from UniProt P08253)
–	> 500	–	> 100	FLAG GelA-CTD mutant #247 Lys^646→Ala (from UniProt P08253)
–	10	–	–	FLAG GelA-CTD mutant #252 Tyr^636→Ala (from UniProt P08253)
–	8	–	–	FLAG GelA-CTD mutant #255 Phe^650→Ala (from UniProt P08253)
–	3	–	–	FLAG GelA-CTD mutant #257 Gly^651→Ala (from UniProt P08253)
